# Test results reported in ChEMBL document CHEMBL1142886, “Substrate specificity analysis and inhibitor design of homoisocitrate dehydrogenase” (Bioorg Med Chem, 2007).
# B1: Homoisocitrate dehydrogenase, mitochondrial (Saccharomyces cerevisiae S288c), P40495 (protein)
# chain: MFRSVATRLSACRGLASNAARKSLTIGLIPGDGIGKEVIPAGKQVLENLNSKHGLSFNFIDLYAGFQTFQETGKALPDETVKVLKEQCQGALFGAVQSPTTKVEGYSSPIVALRREMGLFANVRPVKSVEGEKGKPIDMVIVRENTEDLYIKIEKTYIDKATGTRVADATKRISEIATRRIATIALDIALKRLQTRGQATLTVTHKSNVLSQSDGLFREICKEVYESNKDKYGQIKYNEQIVDSMVYRLFREPQCFDVIVAPNLYGDILSDGAAALVGSLGVVPSANVGPEIVIGEPCHGSAPDIAGKGIANPIATIRSTALMLEFLGHNEAAQDIYKAVDANLREGSIKTPDLGGKASTQQVVDDVLSRL
# How the values were obtained:
# [1] = substrate: C=CCCC[C@H](C(=O)O)[C@@H](O)C(=O)O; assay: (§1) Activity of recombinant Saccharomyces cerevisiae homoisocitrate dehydrogenase expressed in Escherichia coli Rosetta cells
# [2] = substrate: O=C(O)[C@@H](CCCCO)[C@@H](O)C(=O)O; assay: as §1
# [3] = substrate: O=C(O)CC[C@H](C(=O)O)[C@@H](O)C(=O)O; assay: as §1
# [4] = substrate: CC[C@H](C(=O)O)[C@@H](O)C(=O)O; assay: as §1
# [5] = substrate: O=C(O)CCC[C@H](C(=O)O)[C@@H](O)C(=O)O; assay: as §1
# [6] = substrate: O=C(O)CCCC[C@H](C(=O)O)[C@@H](O)C(=O)O; assay: as §1
# [7] = substrate: C=C[C@H](C(=O)O)[C@@H](O)C(=O)O; assay: as §1
# [8] = substrate: CCCCC[C@H](C(=O)O)[C@@H](O)C(=O)O; assay: as §1
# [9] = substrate: CCC[C@H](C(=O)O)[C@@H](O)C(=O)O; assay: as §1
# [10] = substrate: C[C@H](C(=O)O)[C@@H](O)C(=O)O; assay: as §1
# [11] = substrate: C=CC[C@H](C(=O)O)[C@@H](O)C(=O)O; assay: as §1
# [12] = substrate: O=C(O)[C@@H](CCCO)[C@@H](O)C(=O)O; assay: as §1
# [13] = substrate: O=C(O)[C@@H](CCO)[C@@H](O)C(=O)O; assay: as §1
# [14] = substrate: C=CCCC[C@H](C(=O)O)[C@@H](O)C(=O)O; assay: (§2) Ratio of kcat/km of recombinant Saccharomyces cerevisiae homoisocitrate dehydrogenase expressed in Escherichia coli Rosetta cells above 10 mM
# [15] = substrate: O=C(O)[C@@H](CCCCO)[C@@H](O)C(=O)O; assay: as §2
# [16] = substrate: O=C(O)CC[C@H](C(=O)O)[C@@H](O)C(=O)O; assay: as §2
# [17] = substrate: CC[C@H](C(=O)O)[C@@H](O)C(=O)O; assay: as §2
# [18] = substrate: O=C(O)CCC[C@H](C(=O)O)[C@@H](O)C(=O)O; assay: as §2
# [19] = substrate: O=C(O)CCCC[C@H](C(=O)O)[C@@H](O)C(=O)O; assay: as §2
# [20] = substrate: C=C[C@H](C(=O)O)[C@@H](O)C(=O)O; assay: as §2
# [21] = substrate: CCCCC[C@H](C(=O)O)[C@@H](O)C(=O)O; assay: as §2
# [22] = substrate: CCC[C@H](C(=O)O)[C@@H](O)C(=O)O; assay: as §2
# [23] = substrate: C[C@H](C(=O)O)[C@@H](O)C(=O)O; assay: as §2
# [24] = substrate: C=CC[C@H](C(=O)O)[C@@H](O)C(=O)O; assay: as §2
# [25] = substrate: O=C(O)[C@@H](CCCO)[C@@H](O)C(=O)O; assay: as §2
# [26] = substrate: O=C(O)[C@@H](CCO)[C@@H](O)C(=O)O; assay: as §2
protein,measurement,setting,value
B1,Km,[1],9400 µM
same,kcat,[1],0.14 s⁻¹
same,Km,[2],440 µM
same,kcat,[2],2.1 s⁻¹
same,Km,[3],18 µM
same,kcat,[3],17 s⁻¹
same,Km,[4],600 µM
same,kcat,[4],0.61 s⁻¹
same,Km,[5],26 µM
same,kcat,[5],1.6 s⁻¹
same,Km,[6],170 µM
same,kcat,[6],3.1 s⁻¹
same,Km,[7],3400 µM
same,kcat,[7],0.5 s⁻¹
same,Km,[8],7200 µM
same,kcat,[8],0.11 s⁻¹
same,Km,[9],290 µM
same,kcat,[9],0.7 s⁻¹
same,Km,[10],5700 µM
same,kcat,[10],0.32 s⁻¹
same,Km,[11],410 µM
same,kcat,[11],0.34 s⁻¹
same,Km,[12],580 µM
same,kcat,[12],4.8 s⁻¹
same,Km,[13],2100 µM
same,kcat,[13],0.78 s⁻¹
same,kcat/Km,[14],15 M⁻¹ s⁻¹
same,kcat/Km,[15],4800 M⁻¹ s⁻¹
same,kcat/Km,[16],940000 M⁻¹ s⁻¹
same,kcat/Km,[17],1000 M⁻¹ s⁻¹
same,kcat/Km,[18],62000 M⁻¹ s⁻¹
same,kcat/Km,[19],18000 M⁻¹ s⁻¹
same,kcat/Km,[20],150 M⁻¹ s⁻¹
same,kcat/Km,[21],15 M⁻¹ s⁻¹
same,kcat/Km,[22],2400 M⁻¹ s⁻¹
same,kcat/Km,[23],56 M⁻¹ s⁻¹
same,kcat/Km,[24],830 M⁻¹ s⁻¹
same,kcat/Km,[25],8300 M⁻¹ s⁻¹
same,kcat/Km,[26],370 M⁻¹ s⁻¹
